# Assay results taken from the DeepSol protein solubility set.
# Experiment: soluble on expression in E. coli; label from the status in PepcDB or PDB records
row,Sequence,soluble on expression in E. coli
1,MQTPKPTLELLTCDAAYRENPTALFHQVCGDRPATLLLESADIDSKDDLKSLLLVDSALRITALGDTVTIQALSDNGASLLPLLDTALPAGVENDVLPAGRVLRFPPVSPLLDENARLCSLSVFDAFRLLQGVVNIPTQEREAMFFGGLFAYDLVAGFEALPHLEAGNNCPDYCFYLAETLMVIDHQKKSTRIQASLFTASDREKQRLNARLAYLSQQLTQPAPPLPVTPVPDMRCECNQSDDAFGAVVRQLQKAIRAGEIFQVVPSRRFSLPCPSPLAAYYVLKKSNPSPYMFFMQDNDFTLFGASPESSLKYDAASRQIEIYPIAGTRPRGRRADGTLDRDLDSRIELDMRTDHKELSEHLMLVDLARNDLARICTPGSRYVADLTKVDRYSYVMHLVSRVVGELRHDLDALHAYRACMNMGTLSGAPKVRAMQLIADAEGQRRGSYGGAVGYFTAHGDLDTCIVIRSALVENGIATVQAGAGIVLDSVPQSEADETRNKARAVLRAIATAHHAQETF,soluble
2,MMHMDESRKEIIREEAKRAKAIAVEKYKAGDFAGAKEFALKAKQINPALGGLRRLNALLDVCMGFQKQVNGEVDWYDVLAVERTADFITIFNRYSTLAIDISLDRDESVGSGVKEALKILTDASKYFLERRELLPSRRVSGPINQLSRISCEGSKQKEPPPTNLLHVSKLTRMSEDAEIRHDISPNRLRSALARKATSVIKLSLETFVCSSPHNNVGAAEETDNKVMEE,soluble
3,AIAELFTLGACRQVGKSCFVLKTSEGLVMLDCGLHPSYQDDRRYPNFSLAFSYGPLKAVFITHCHADHVGALPILTERWGYDGPIYMSEPTRKLSYYILEECVGSWGGDDEWTDSSRSEWSYTQREVESCLTKVTIMEPGQSISVGENVQVHSWMAGHVLGAYMFSIVVDNHRILYTGDFTSCPTFHLPPARVDDIPYPPDVILSEATYATSFKDGRLNNQVEFIQNVLDCLLDGGKVLVPVFAIGRAQELLLLLGK,soluble
4,DPDQFRAIIESPEGAGHVGYQYRRNTGSTMRMVSDVLDERVSLWDFHCDPSGNVIQPGPNVDSRQYLQAAIDYVSSNGGGTITIPAGYTWYLGSYGVGGIAGHSGIIQLRSNVNLNIEGRIHLSPFFDLKPFQVFVGFDNGDPASSGNLENCHIYGHGVVDFGGYEFGASSQLRNGVAFGRSYNCSVTGITFQNGDVTWAITLGWNGYGSNCYVRKCRFINLVNSSVNADHSTVYVNCPYSGVESCYFSMSSSFARNIACSVELHQHDTFYRGSTVNGYCRGAYVVMHAAEAAGAGSYAYNMQVENNIAVIYGQFVILGSDVTATVSGHLNDVIVSGNIVSIGERAAFSAPFGAFIDIGPDNSGASNVQDIQRVLVTGNSFYAPANITDSAAITLRANLNGCTFIANNFDCRYMVYNAPGTTSPVVQNLVWDKSNVIGGTHANQRAGQNLFDMQFASVVNSTIEVQLSCEDLSMFSCILFPASCQLSYSKITVDSAWTKSMSNTAVFEGNQQAGANVYVSYPATVNLTSYNTQGAVPFFSTDTNYAWVTSAYSLSINENLDFSPPATYTNKANGQLVGVGYNEIGGVRSVSVRLMLQRQV,soluble
5,SGRLHCTEDPVPEAVGGDMQQLNQLGAQQFSALTEVLFHFLTEQKEVERFLAQLSEFATTNQISLGSLRSIVKSLLLVPNGALKKSLTAKQVQADFITLGLSEEKATYFSEKWKQNTPTLARWAIGQTLMINQLIDMEWKFGVTSGSSELEKVGSIFLQLKLVVKKGNQTKNVYIELTLPQFYSFLHEMERVRTSMECFC,soluble
6,MVRANKRNEALRIESALLNKIAMLGTEKTAEAVGVDKSQISRWKRDWIPKFSMLLAVLEWGVVDDDMARLARQVAAILTNKKRPAATERSEQIQMEF,soluble
7,MGSDKIHHHHHHALSSDYFTTTPQVLEAVGGKVPVTINGKFPEKYFKKNAVVEVTPVLKWEGGQVKGQPAVFQGEKVEGNDQTISYKMGGNYTMKTTFDYVPEMAKSELYLEFNAKVGKKTIAIPAVKIADGVISTSELINNTLSSANPALGDDAFQRIIKEAHNANIMFLIQQANIRSSELKTAKEFNKEVANVNDAENKKISNIEISAYASPDGGVKLNTGLAENREGNTTKLINKDLKKAKIEVPVDAKYTAQDWEGFQELVSKSNIQDKELILRVLSMYQDPEQRETEIKNISSVYKTLADEILPQLRRSRLTLNYEIIGKSDEEIANLAATDPKQLNVEEILYAATLTNDPAKKADIYTKASQQFPNDYRAFNNLGKLAYQAGDLDKAQSYVKKAESIKSAPEVNMNLGLIALAKGDKAAAESYLGKAAGAKELNETLGNLYVAQGQYERAVNAFGDTKTNSAALAQILAKDYNKAKNTLAGIATPDAYTDYLMAVLGARTNNTSMLTSSLKSAVAKNPALAKKAATDLEFAKYYTNADFMSIVK,not soluble
8,MGSDKIHHHHHHMHTEVQEYGLSLRWVRFIFAAKEILINMVYKVFLSLCIGLALSASAALHAQKAVSGHAPIQVETPARSSGQKHVLQLVTPKLETVRIGIIGLGMRGPGAVERFSKIPGTQIVALCDVLPERVKKTQEILVKAGLPEAAAYSGSEDAWKKLCEREDIDLVYIVTDWKTHAEMGVYAMEHGKHAAIEVPAAMTLEEIWKLIDTSERTRKHCIQLENCVYDFFELTTLNMAHQGVFGEILHAEGAYIHNLEDFWPYYWNNWRLDYNRKHRGDVYATHGMGPACQLLDIHRGDRMKTIVAMDTKAVNGPAYIKNKTGEVVADFQNGDQTTSLIRTEKGKTLLIQHNVMTPRPYSRKYQAVGTDGFADKYPLEMYCLRPAQVDSDIAPDHEKLNAHGPVSEEVKKALMEKYKHPIHRELEETAKKVGGHGGMDYIMDYRLIYCLRNGLPLDMDVYDLAEWCCLAELSRISIENGSAPVAIPDFTRGNWDKVKGYRHAMAE,not soluble
9,MAYSLTRKLLKDWKYFMRHPEKTQGLFHVRPHDSDLHLWHVVMYEPRTSLEVYLLLYIGGNDQDPYIIMKCLSPNCCFPINRTVSMTHLNYLLLKDLGLQDLLFHIWQPLFHIQATEDLQYSPSTVKFNRAWNRIIYKDFKSYFPELIGTLQPGDYSIVKSYSKNHNISNSNGGSVNEFMSSYNAQSHTFHAQDNSKNPYTNSSIGKSSMLSTLNNNNVNKRTHDYNAIDFMTKNLLACDDDSIHPVVSSKRSRTLACPDETNDNRGSEHYTKRKKI,soluble
10,MSLAAGKHTKHSNRVRIIGGQCRGRKLSFTSADGLRPTPDSVREKLFNWLGQDLTGKTVLDLFGGSGALGIEAASRNAKRVLISDNNRQTVQTLQKNSRELGLGQVQIVFSDGIAYLKTVSEQFDVVFLDPPFAWQDWQILFDALKPCLNPRAFVYLEAGTLPNIPDWLTEYREGKSGQSTFELRVFQVAEEGHHHHHH,soluble
11,MPQLSRYSDEHVEQLLSELLSVLEKHKAPTDLSLMVLGNMVTNLINTSVAPAQRQAIANSFARALQSSISEDNAH,not soluble
12,GPGSMRLVDLSLPLYDGMPVYDGDPPVHVTKVCTREKDGWEVRHLQMGSHTGTHVDAPAHMHEDGSNLDEVPLTRFCGPAVVVKVADSSFPPNKGLLFYEAVPADCVPRIVAANAPFVGGPLEEKAERLLLGCGIITYTGLVNVEQLIGESFTFYGLPLRIRGGDGSPVRAVAVMDDK,soluble
13,MGSDKIHHHHHHMVTHWLPDLSTAEGPLYIRIADRAEADIKTGRLSSGAKLPPQRDLAFDLKVTIGTITRAYALLRERGLVTGEVGRGTYVQSSLAESETDIHRDPVTLTYGGTRTLSPPPGKLRFDTTAAIDVGQADIIGRLMTDIARDQPDEIASYTRTLLPDWLEAGRRWLSNGDWSPEAANIVPQMGVHAGVNAVIAAISGTGDRIVCEHLTYSQIARSASLMGRQIALVDSDHDGIMPEDFERVCAREHPKAAFIMSSGQNPTLSCLPLSRRLEIIDIARRYNVWLIEDYIYGALVDDGIPLLAQLAPDRTFLLNSLSKSVAAGVRGGWVACPDHMSQRVRVTQKMVCGGLPFLLAELSARLVLSGAADDIRGRVLEELSAREQIVRQLFEGYEFRSHPRLPYFWLKLPEPWLSGTFKQAALDQGVLIDDEDEFKPARSSRVFHHIRAGFSEGRDRSIAEGGLITLRRILDQIPVGSNAVM,not soluble
14,KEPSHNSFTFNESLSFTGFSKLDNNTNFNASIVSDDNRAGAMVFGQARYRNHWDANNDGYSELGKIDARSLGAHSYLRLSDYSKLTGEFHTISEFRRGGDRIDLPPHVVGVAEQTDHSVFSGNLKYDLFSSNYKHHFQAYTSGQIVNRKSYYGGIGEIDVNGHPGGTEGYPIPQDQYGNNYGVTKGKTYMGGIQYSYDLDKFLLMPSQLLFGAEYTRDELNDVMPILSWQTGEDANGNTIPLYPELDQNINNYSLFGQNEWKNDRWSILVGARLDKHSEVKDMILSPRTTLRFNVNPDINLRATYAKGFRAPQVFDEDLHVGVVGGEAQKVFNDPNLKPEISHAFSLSADMYHRFGNVQTNFLVEGFYTRLLDVFTNEEQPDQHDGIKRYTRINGSGAKVFGLNLEGKVAYKSFQLQAGLTLASNKYDEAQEWGLNTVKDTNGAFVTEANANGQQEYKNESMTDTQITRTPSVYGYFTLAYNPAHSWNIALTGAYTGQMYVPHAIEYGVKSAELDIMQNNPEITDETGKAPRIDELKKTPAFFDLGLKVGYDFHVFQATEVQLYVGMNNIFNSFQKDFDRGAARDSGYIYGPTQPRTGYMGLVVKF,not soluble
15,YRDINEIDINMNDPLFTKQWYLINTGQADGTPGLDLNVAEAWELGYTGKGVTIGIMDDGIDYLHPDLASNYNAEASYDFSSNDPYPYPRYTDDWFNSHGTRCAGEVSAAANNNICGVGVAYNSKVAGIRMLDQPFMTDIIEASSISHMPQLIDIYSASWGPTDNGKTVDGPRELTLQAMADGVNKGRGGKGSIYVWASGDGGSYDDCNCDGYASSMWTISINSAINDGRTALYDESCSSTLASTFSNGRKRNPEAGVATTDLYGNCTLRHSGTSAAAPEAAGVFALALEANLGLTWRDMQHLTVLTSKRNQLHDEVHQWRRNGVGLEFNHLFGYGVLDAGAMVKMAKDWKTVPERFHCVGGSVQDPEKIPSTGKLVLTLTTDACEGKENFVRYLEHVQAVITVNATRRGDLNINMTSPMGTKSILLSRRPRDDDSKVGFDKWPFMTTHTWGEDARGTWTLELGFVGSAPQKGVLKEWTLMLHGTQSAPYIDQVVRDYQSKLAMSKKEELEEELDEAVERSLKSILNKN,soluble
16,MSLNRYSVHPEQVKRFTTEELRSHFLMDSLFTENKLTMYYSHEDRVVIGGAAPGQSELKLDAGDFLKTDFFLERREIGIINVGQPGAVRVGDDEYVLQTKDFLYIGMGNQDVSFSSLNGEKAKFYFVSACAHKSYPTQKAALSELTPDRLGDDAASNVRSLYKVIHQDGIKSCQLMMGITMLDQNNNWNTMPAHVHDRRMEAYLYLDLEKDSKVFHFMGQPDETRHLVVGNEQAVLSPAWSIHSGAGTSNYSFVWAMAGENYTFTDMDLIPMDGLKEGHHHHHH,soluble
17,MSLTASVAAAPDPASLAPELAHIAPALKAEILAQALPYIRKFHGKTIVIKYGGNAMTEEKLKHGFARDVILLKLVGMNPVVVHGGGPQIDDALKKVGKTGTFIQGMRVTDEETMEVVEWVLGGEVQQDIVMLINQYGGQAVGLTGKDGGLIRAKKLQMPDREKPGQFIDIGFVGDIETINPAVVRALQDDAFIPVISPIGFSDDGQAYNINADVVAGKMAEILKAEKLVMMTNIPGVLDKQGNLLTDLSAREIDELFADGTISGGMLPKISSALDAAKSGVHSVHIIDGRIEHSLLLEILTEQAFGTMIRSHEGHHHHHH,soluble
